Test results: patent publication US20260209346A1 (LTZ THERAPEUTICS, published 2026)

Key:
[1] = biological target: T1, human CD79b recombinant protein (human, UniProt P40259 29-159); assay: ELISA, coated human CD79b recombinant protein
T1 construct: also called human CD79b ECD antigen; recombinant human CD79b ECD
T1 sequence: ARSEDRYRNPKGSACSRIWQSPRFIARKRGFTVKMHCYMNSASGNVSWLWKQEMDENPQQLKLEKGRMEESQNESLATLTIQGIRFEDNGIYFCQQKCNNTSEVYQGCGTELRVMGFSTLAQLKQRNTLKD
Procedure: (§1) Binding affinities of anti-CD79b antibodies to human and cynomolgus CD79b recombinant proteins were tested by ELISA. 1 ug/ml (in PBS buffer) of human or cynomolgus CD79b recombinant proteins were coated on an ELISA plate overnight. ELISA plates were washed and blocked with blocking buffer (PBS+1% BSA) followed by incubation with serially diluted anti-CD79b primary antibodies. Anti-CD79b antibody binding was quantified using an anti-human IgG HRP secondary antibody (Biolegend Catalog #410902) and HRP substrate.

[2] = biological target: T1, human CD79b recombinant protein; assay: BLI; antibody at 10 ug/ml captured on anti-human IgG Fc probes, hCD79b in solution; same value printed in the rows for 18.3 and 9.14 nM hCD79b
Procedure: (§2) Binding affinities of anti-CD79b antibodies to human CD79b recombinant proteins were tested by BLI. 10 ug/ml of anti-CD79b antibodies were captured by anti-human IgG Fc probes (Gator Bio Catalog #160024). […] Absolute kD was determined by applying a 1:1 binding model (Global Rmax unlinked).

[3] = biological target: T2, CD79b endogenously expressed on the cell surface (malignant B cell lines, normal B cells in PBMC, CLL … (human, UniProt P40259 29-229)); assay: flow cytometry on BJAB cells; anti-human IgG1-PE; MFI (PE); table under the graph; plateau only about 1.1x10^5 against about 6x10^5 for the others
T2 construct: whole, on cells; On cells CD79b stands in the B-cell receptor complex with CD79a and surface Ig; also called cell surface CD79b; endogenous CD79b
T2 sequence (looked up): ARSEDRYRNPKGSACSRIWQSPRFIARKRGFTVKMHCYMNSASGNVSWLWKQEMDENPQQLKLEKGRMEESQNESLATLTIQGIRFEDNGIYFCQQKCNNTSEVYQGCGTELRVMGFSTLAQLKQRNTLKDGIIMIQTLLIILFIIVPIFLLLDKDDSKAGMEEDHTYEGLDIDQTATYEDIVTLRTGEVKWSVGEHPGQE
Procedure: (§3) The binding affinities of anti-CD79b antibodies to malignant B cell lines were tested. […] The cells were then incubated with 100 μl anti-human IgG1-PE (Invitrogen, cat: 12-4998-82), 1:1000 dilution, for 30 min on ice, washed with 200 ul PBS for three times before flow cytometry analysis.

[4] = biological target: T3, cynomolgus CD79b recombinant protein (cynomolgus); assay: ELISA; cynomolgus CD79b recombinant protein coated at 1 ug/ml; anti-human IgG HRP; OD 450 nm
T3 chain: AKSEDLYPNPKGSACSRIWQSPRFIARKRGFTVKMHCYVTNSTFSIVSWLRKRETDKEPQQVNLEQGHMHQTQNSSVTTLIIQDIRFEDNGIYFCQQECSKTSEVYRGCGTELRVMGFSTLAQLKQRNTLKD
Procedure: as §1

[5] = biological target: T2, CD79b endogenously expressed on the …; assay: flow cytometry on Nalm-6 cells; anti-human IgG1-PE; MFI (PE); table under the graph; fit of a flat curve, far above the highest concentration of 40 nM
Procedure: as §3

[6] = biological target: T1, human CD79b recombinant protein; assay: BLI, antibody captured on anti-human IgG Fc probes, human CD79b in solution, 1:1 model
Procedure: as §2

[7] = biological target: T2, CD79b endogenously expressed on the …; assay: flow cytometry on Ramos cells; anti-human IgG1-PE; MFI (PE); table under the graph; curve reaches only about 0.3x10^5 at 40 nM
Procedure: as §3

[8] = biological target: T2, CD79b endogenously expressed on the …; assay: flow cytometry on Daudi cells; anti-human IgG1-PE; MFI (PE); table under the graph; curve reaches only about 0.2x10^5 at 40 nM
Procedure: as §3

IC50 [1]: 0.17 nM | koff [2]: 0.000168 s⁻¹ | kon [2]: 353000 M⁻¹ s⁻¹ | EC50 [3]: 0.99 nM | binding result [4]: no binding (tested: about 13 nM) | EC50 [5]: 508 nM | Kd [6]: 0.476 nM | EC50 [7]: 11.3 nM | EC50 [8]: 14.2 nM
B1: ch29C3 (antibody, human IgG1, kappa, V domains shown)
VH: QSVKESGGGLFKPTDTLTLTCTVSGIDLNNYAMNWVRQAPGKGLDWIGLIGASGSTYYADWAKGRFTISKTSTTVDLKMTSLTTEDTATYFCAIGISATAHTSNIWGPGTLVAVSL
VL: ALVMTQTPSSVSAAVGGTVTINCQASQNIDSNLAWYQQKPGQPPKLLIYDASALASGVPSRFKGSGSGTEYTLTISGVEPDDAATYYCQQDDSSSNVDNPFGGGTEVVVKR
notes: Rabbit/human chimeric IgG1 kappa; also called chimeric 29C3
